Marks after values point to notes of the source that are not given here.
T1: PLIP (Mus musculus, UniProt Q66GT5)
T1 construct: ligating a PCR product encoding full-length PLIP; made in house; host or cells: Escherichia coli BL21 (DE3) CodonPlus RIL
T1 sequence (Q66GT5 32-193): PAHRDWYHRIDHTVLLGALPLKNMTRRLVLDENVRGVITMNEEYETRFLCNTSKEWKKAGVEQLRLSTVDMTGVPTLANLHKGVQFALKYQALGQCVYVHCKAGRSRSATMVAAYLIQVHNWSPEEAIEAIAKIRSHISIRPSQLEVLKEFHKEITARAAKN

T2: MTM1 (Homo sapiens, UniProt Q13496)
T2 sequence (Q13496 1-603): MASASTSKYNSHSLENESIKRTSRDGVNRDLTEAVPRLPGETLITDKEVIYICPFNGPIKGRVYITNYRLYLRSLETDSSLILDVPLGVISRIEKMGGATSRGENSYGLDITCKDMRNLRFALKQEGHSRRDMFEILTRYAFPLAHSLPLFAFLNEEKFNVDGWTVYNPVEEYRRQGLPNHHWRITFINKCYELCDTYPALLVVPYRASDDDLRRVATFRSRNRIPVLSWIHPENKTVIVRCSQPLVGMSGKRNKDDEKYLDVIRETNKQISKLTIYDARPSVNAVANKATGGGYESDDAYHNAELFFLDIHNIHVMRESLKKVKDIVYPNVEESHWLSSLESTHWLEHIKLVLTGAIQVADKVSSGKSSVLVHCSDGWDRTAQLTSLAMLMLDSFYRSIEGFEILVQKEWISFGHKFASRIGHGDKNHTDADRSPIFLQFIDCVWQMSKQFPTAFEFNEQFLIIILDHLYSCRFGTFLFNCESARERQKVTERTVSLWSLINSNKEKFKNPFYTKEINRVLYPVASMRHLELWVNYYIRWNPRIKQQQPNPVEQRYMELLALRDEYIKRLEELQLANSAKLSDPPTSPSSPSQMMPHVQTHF

T3: TC-PTP (Homo sapiens, UniProt P17706)
T3 sequence (P17706 1-415): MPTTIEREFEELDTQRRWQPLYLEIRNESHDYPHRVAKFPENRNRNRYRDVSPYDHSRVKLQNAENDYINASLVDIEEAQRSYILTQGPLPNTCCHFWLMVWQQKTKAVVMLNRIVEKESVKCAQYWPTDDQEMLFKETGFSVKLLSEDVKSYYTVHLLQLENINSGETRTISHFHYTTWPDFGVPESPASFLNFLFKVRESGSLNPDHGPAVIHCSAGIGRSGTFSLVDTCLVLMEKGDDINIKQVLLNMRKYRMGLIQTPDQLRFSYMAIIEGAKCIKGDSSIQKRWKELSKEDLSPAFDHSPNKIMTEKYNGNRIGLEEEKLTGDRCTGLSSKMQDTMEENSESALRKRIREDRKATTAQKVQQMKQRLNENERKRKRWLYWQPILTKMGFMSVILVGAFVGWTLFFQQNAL


How the values were obtained:
[1] = molecular target: T1, PLIP; test: Phosphatase activity of various PTPs (malachite green / radiolabeled protein substrates); assay type: biochemical, murine; details: for Phosphatase activity, PLIP: mole of phosphate released/min/mol of enzyme, pH 5.5, triplicate, this study
Description: Recombinant murine PLIP was expressed as a fusion protein with N-terminal GST and 6-His tags in Escherichia coli BL21 (DE3) CodonPlus RIL cells (Stratagene). The expression construct was assembled by ligating a PCR product encoding full-length PLIP into the 5′-EcoR1 and 3′-Xho1 sites of a modified pET41 vector (pSJ6), kindly provided by Zhaohui Xu (University of Michigan). […] Cultures were then chilled on ice for 20 min, supplied with fresh antibiotics, induced with IPTG to a final concentration of 0.4 mM, and allowed to grow overnight @ 25° C., as previously described (Taylor and Dixon, 2003). All subsequent steps were performed @ 4° C. The cultures were pelleted by spinning @ 6000 rpm for 10 min in a Sorvall GSA rotor, resuspended in 30 ml of buffer (20 mM Imidazole, 50 mM Tris pH 7.4, 300 mM NaCl) with Complete protease inhibitors (Roche), and lysed via French Press. Insoluble material was removed by centrifugation @ 50,000 rpm for 30 min. The fusion protein was purified from the soluble supernatant first over Ni^2+ agarose beads, and then by successive separation on Superdex 75 and 200 gel filtration columns (Amersham). The resulting protein was concentrated, flash frozen in liquid nitrogen, and stored @−80° C. in 25% glycerol, 2 mM EDTA, and 2 mM DTT until use.
Di-C8 phosphoinosites (Echelon) and Dioleoyl-phosphatidylserine (Sigma) were dried together in a Speed Vac and resuspended via sonication in 18 μl assay buffer (100 mM sodium acetate, 50 mM bis-Tris, 50 mM Tris (pH 5.5), 10 mM DTT) to final concentrations of 50 μM and 500 μM, respectively. After prewarming at 37° C. for 5 min, reactions were initiated by the addition of 20 to 2000 ng of GST-PLIP diluted in assay buffer containing 1.0 mg/ml gelatin. Reactions were quenched after 5-30 min by the addition of 20 μl 0.1 M N-ethylmaleimide, and spun at 18,000×g for 10 min to sediment the lipid aggregates. […] Samples were allowed to sit for 40 minutes for color development before measuring absorbance at 620 nm. Inorganic phosphate release was quantitated by comparison to a standard curve of KH2PO4 in dH2O. […]

[2] = molecular target: T2, MTM1; details: Ref. 32; cited from earlier work
[3] = molecular target: VHR (Homo sapiens, UniProt P51452); test: Phosphatase activity of various PTPs (malachite green / radiolabeled protein substrates); assay type: biochemical; details: mole of phosphate released/min/mol of enzyme; triplicate; this study
Chain of VHR (P51452 whole entry, species assumed): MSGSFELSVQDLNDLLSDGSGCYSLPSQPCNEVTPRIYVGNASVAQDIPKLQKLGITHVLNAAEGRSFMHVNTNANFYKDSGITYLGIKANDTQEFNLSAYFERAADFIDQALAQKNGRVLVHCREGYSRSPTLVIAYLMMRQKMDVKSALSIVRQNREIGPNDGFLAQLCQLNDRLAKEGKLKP
Description: (§1) Di-C8 phosphoinosites (Echelon) and Dioleoyl-phosphatidylserine (Sigma) were dried together in a Speed Vac and resuspended via sonication in 18 μl assay buffer (100 mM sodium acetate, 50 mM bis-Tris, 50 mM Tris (pH 5.5), 10 mM DTT) to final concentrations of 50 μM and 500 μM, respectively. After prewarming at 37° C. for 5 min, reactions were initiated by the addition of 20 to 2000 ng of GST-PLIP diluted in assay buffer containing 1.0 mg/ml gelatin. Reactions were quenched after 5-30 min by the addition of 20 μl 0.1 M N-ethylmaleimide, and spun at 18,000×g for 10 min to sediment the lipid aggregates. Twenty-five microliters of the supernatant was added to 50 μl of malachite green reagent and vortexed. Samples were allowed to sit for 40 minutes for color development before measuring absorbance at 620 nm. Inorganic phosphate release was quantitated by comparison to a standard curve of KH2PO4 in dH2O.
(§2) Assays using radiolabeled protein substrates or pNPP were carried in assay buffer containing 50 mM sodium acetate, 25 mM bis-Tris, 25 mM Tris, and 2 mM DTT at pH 5.5 (GST-PLIP), 6.0 (VHR), or 7.0 (TC-PTP), at 30° C. Radiolabeled proteins and pNPP were prepared and assayed as previously reported (Taylor et al., 1997).
(§3) Due to the only recent emergence of PI(5)P as a known signaling molecule, few PTP's have been tested for activity against this substrate. To ensure that activity against PI(5)P is not a common feature of PTP's, membrane-bound di-C8 PI(5)P was assayed using a known tyrosine-specific PTP (TC-PTP) and a known dual-specific PTP (VHR) (Ishibashi et al., 1992; Zhao et al., 1992; Ruzzene et al., 1993; Zhou et al., 1994; Denu et al., 1995).

[4] = molecular target: T3, TC-PTP; test: as above; assay type: biochemical; details: mole of phosphate released/min/mol of enzyme; triplicate; this study
Description: as §1, §2, §3

[5] = molecular target: PTEN (Homo sapiens, UniProt P60484); details: protein substrates; Ref. 43; cited from earlier work
Chain of PTEN (P60484 whole entry, species assumed): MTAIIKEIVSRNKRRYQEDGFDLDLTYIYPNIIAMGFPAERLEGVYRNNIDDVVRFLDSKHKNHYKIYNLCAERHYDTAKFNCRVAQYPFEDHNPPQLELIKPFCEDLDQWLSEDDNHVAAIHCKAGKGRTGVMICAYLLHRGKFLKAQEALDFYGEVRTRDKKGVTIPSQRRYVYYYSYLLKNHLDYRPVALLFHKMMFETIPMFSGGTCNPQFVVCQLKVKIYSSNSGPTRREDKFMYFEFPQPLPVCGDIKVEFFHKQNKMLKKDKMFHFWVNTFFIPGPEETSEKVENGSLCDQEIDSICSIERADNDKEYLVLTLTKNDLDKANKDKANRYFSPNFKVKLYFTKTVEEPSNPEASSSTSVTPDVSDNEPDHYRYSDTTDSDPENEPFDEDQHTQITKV

Row | Molecule | PLIP activity, fold lower than against PI(5)P ([1]; radiolabeled protein substrates) | Phosphatase activity, MTM1 [2] | Phosphatase activity, VHR [3] | Phosphatase activity, TC-PTP [4] | Phosphatase activity, PLIP [1] | Phosphatase activity, PTEN [5]
1 | myelin basic protein: radiolabeled myelin basic protein (protein, UniProt P02686 1-304, looked up, radiolabeled) Myelin basic protein: MGNHAGKRELNAEKASTNSETNRGESEKKRNLGELSRTTSEDNEVFGEADANQNNGTSSQDTAVTDSKRTADPKNAWQDAHPADPGSRPHLIRLFSRDAPGREDNTFKDRPSESDELQTIQEDSAATSESLDVMASQKRPSQRHGSKYLATASTMDHARHGFLPRHRDTGILDSIGRFFGGDRGAPKRGSGKDSHHPARTAHYGSLPQKSHGRTQDENPVVHFFKNIVTPRTPPPSQGKGRGLSLSRFSWGAEGQRPGFGYGGRASDYKSAHKGFKGVDAQGTLSKIFKLGGRDSRSGSPMARR | approximately 1000 fold |  |  |  |  | 
2 | MyBP Tyr(P): radiolabeled myelin basic protein substrate, tyrosine phosphorylated (protein, UniProt P02686 1-304, looked up, radiolabeled, tyrosine-phosphorylated) Myelin basic protein: MGNHAGKRELNAEKASTNSETNRGESEKKRNLGELSRTTSEDNEVFGEADANQNNGTSSQDTAVTDSKRTADPKNAWQDAHPADPGSRPHLIRLFSRDAPGREDNTFKDRPSESDELQTIQEDSAATSESLDVMASQKRPSQRHGSKYLATASTMDHARHGFLPRHRDTGILDSIGRFFGGDRGAPKRGSGKDSHHPARTAHYGSLPQKSHGRTQDENPVVHFFKNIVTPRTPPPSQGKGRGLSLSRFSWGAEGQRPGFGYGGRASDYKSAHKGFKGVDAQGTLSKIFKLGGRDSRSGSPMARR |  | ~0.0^d mol/(min mol) | 0.5^b mol/(min mol) | 195^b mol/(min mol) | 0.1^b mol/(min mol) | ~0.0^c mol/(min mol)
3 | MyBP Ser(P)/Tyr(P): radiolabeled myelin basic protein substrate (protein, UniProt P02686 1-304, looked up, radiolabeled, Ser/Tyr-phosphorylated, radiolabeled myelin basic protein substrate) Myelin basic protein: MGNHAGKRELNAEKASTNSETNRGESEKKRNLGELSRTTSEDNEVFGEADANQNNGTSSQDTAVTDSKRTADPKNAWQDAHPADPGSRPHLIRLFSRDAPGREDNTFKDRPSESDELQTIQEDSAATSESLDVMASQKRPSQRHGSKYLATASTMDHARHGFLPRHRDTGILDSIGRFFGGDRGAPKRGSGKDSHHPARTAHYGSLPQKSHGRTQDENPVVHFFKNIVTPRTPPPSQGKGRGLSLSRFSWGAEGQRPGFGYGGRASDYKSAHKGFKGVDAQGTLSKIFKLGGRDSRSGSPMARR |  | ~0.0^d mol/(min mol) | ~0.0^b mol/(min mol) | ~0.0^b mol/(min mol) | ~0.0^b mol/(min mol) | ~0.0^c mol/(min mol)

From US7749976B2, “Isolated PTPMT1 protein which mediates insulin production and uses thereof” (The Regents of the University of California, priority 2005, dated 2010)
